Patent publication US20080311599
Residue numbers refer to the chain shown, from its start.

Key:
[1] = target: T1, p72 (1-600)
T1 chain: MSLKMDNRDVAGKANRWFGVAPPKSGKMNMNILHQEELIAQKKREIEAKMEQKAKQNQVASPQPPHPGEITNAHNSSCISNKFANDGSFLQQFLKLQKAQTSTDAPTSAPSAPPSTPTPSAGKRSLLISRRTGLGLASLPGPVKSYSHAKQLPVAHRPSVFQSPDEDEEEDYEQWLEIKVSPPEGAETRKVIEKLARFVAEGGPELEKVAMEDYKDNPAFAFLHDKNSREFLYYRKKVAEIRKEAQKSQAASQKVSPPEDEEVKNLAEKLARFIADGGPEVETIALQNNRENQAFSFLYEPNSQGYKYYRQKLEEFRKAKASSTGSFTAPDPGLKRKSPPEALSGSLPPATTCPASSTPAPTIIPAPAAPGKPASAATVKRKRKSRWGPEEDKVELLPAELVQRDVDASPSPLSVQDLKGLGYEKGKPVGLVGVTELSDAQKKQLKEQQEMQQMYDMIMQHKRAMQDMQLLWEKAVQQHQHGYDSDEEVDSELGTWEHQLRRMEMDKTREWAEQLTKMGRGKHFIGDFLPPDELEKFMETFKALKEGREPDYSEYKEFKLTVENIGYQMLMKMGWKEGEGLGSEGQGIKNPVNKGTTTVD

[2] = target: T2, p72 (D600E)
T2 chain: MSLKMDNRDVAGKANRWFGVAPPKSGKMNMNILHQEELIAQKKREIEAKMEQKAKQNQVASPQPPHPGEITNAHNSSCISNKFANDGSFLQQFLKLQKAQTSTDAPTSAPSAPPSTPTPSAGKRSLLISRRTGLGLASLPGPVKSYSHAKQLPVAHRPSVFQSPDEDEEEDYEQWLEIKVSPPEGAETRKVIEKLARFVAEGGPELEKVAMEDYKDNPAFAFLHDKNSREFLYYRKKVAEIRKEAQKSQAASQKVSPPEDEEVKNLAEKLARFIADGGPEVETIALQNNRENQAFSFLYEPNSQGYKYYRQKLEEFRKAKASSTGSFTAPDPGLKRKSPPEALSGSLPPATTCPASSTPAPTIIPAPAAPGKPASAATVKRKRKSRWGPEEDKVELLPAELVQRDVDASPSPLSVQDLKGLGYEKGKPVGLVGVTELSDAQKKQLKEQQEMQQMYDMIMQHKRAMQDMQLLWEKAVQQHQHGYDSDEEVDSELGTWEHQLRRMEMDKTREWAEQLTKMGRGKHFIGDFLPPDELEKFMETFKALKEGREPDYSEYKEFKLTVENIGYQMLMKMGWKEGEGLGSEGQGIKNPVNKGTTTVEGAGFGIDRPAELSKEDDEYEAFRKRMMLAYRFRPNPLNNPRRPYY

[3] = target: T3, p72
T3 chain: T2 chain with E600D

B1: recombinant active caspase-8 (protein)
chain 1: EELCGVMTISDSPREQDSESQTLDKVYQMKSKPRGYCLIINNHNFAKAREKVPKLHSIRDRNGTHLDAGALTTTFEELHFEIKPHHDCTVEQIYEILKIYQLMDHSNMDCFICCILSHGDKGIIYGTDGQEAPIYELTSQFTGLKCPSLAGKPKVFFI
chain 2: MDFSRNLYDIGEQLDSEDLASLKFLSLDYIPQRKQEPIKDALMLFQRLQEKRMLEESNLSFLKELLFRINRLDLLITYLNTRKEEMERELQTPGRAQISAYRFHFCRMSWAEANSQCQTQSVPFWRRVDHLLIRVMLYQISEEVSRSELRSFKFLLQEEISKCKLDDDMNLLDIFIEMEKRVILGEGKLDILKRVCAQINKSLLKIINDYEEFSKGEELCGVMTISDSPREQDSESQTLDKVYQMKSKPRGYCLIINNHNFAKAREKVPKLHSIRDRNGTHLDAGALTTTFEELHFEIKPHHDCTVEQIYEILKIYQLMDHSNMDCFICCILSHGDKGIIYGTDGQEAPIYELTSQFTGLKCPSLAGKPKVFFIQACQGDNYQKGIPVETDSEEQPYLEMDLSSPQTRYIPDEADFLLGMATVNNCVSYRNPAEGTWYIQSLCQSLRERCPRGDDILTILTEVNYEVSNKDDKKNMGKQMPQPTFTLRKKLVFPSD
cleavage of 35S-labelled p72 mutant in vitro, SDS-PAGE and phospho-imaging [1]: The p72 1-600 mutant co-migrates with the 68 kDa fragment produced after cleavage of the wild type p72 and is not further cleaved by addition of caspase-8 (lanes 2 and 5) | cleavage of 35S-labelled p72 mutant in vitro, SDS-PAGE and phospho-imaging [2]: the same protein profile of p72 D600E mutant is observed in the presence or absence of caspase-8 | cleavage of 35S-labelled p72 in vitro, SDS-PAGE and phospho-imaging [3]: This band disappears after addition of activated caspase-8 for 1 hour and a new smaller fragment corresponding to 68 kDa appears (lane 4)
